Laboratory results as given in patent US20230398228A1, “ERIBULIN-BASED ANTIBODY-DRUG CONJUGATES AND METHODS OF USE” (EISAI R&D MANAGEMENT CO., LTD., priority 2016, published 2023).
Read-outs that look alike come from different tables or passages of the source.

What was measured:
[1] = DAR analysis by LC-MS (UPLC/ESI-MS, reverse-phase LC-MS); settings: reverse-phase LC-MS
Procedure: ADCs were deglycosylated using PNGase F (New England BioLabs). G7 buffer (10 μL) and PNGase F (2 μL) were added to the mAb (90 μL, 1 mg/mL in DPBS). The reaction was incubated in a Discover microwave (CEM) for 2 cycles: (1) microwave power 10 W, 37° C., 10 min, followed by a 5-min pause; (2) microwave power 2 W, 37° C., 10 min. A portion of the sample was reduced by adding DTT to a final concentration of 20 mM, followed by incubation at 60° C. for 3 min. Samples were then analyzed using a Waters Acquity Ultra Performance Liquid Chromatography (UPLC) and quadrupole time of flight (Q-Tof) Premier mass spectrometer. Samples (0.5-2 μg each) were injected onto a MassPrep™ micro desalting column at 65° C., eluted from the column with a 5 min equilibration in 95% of mobile phase A, a 10 min gradient (5-90% B), and a 10 min re-equilibration in 95% of mobile phase A, at 0.05 mL/min. Mobile phase A was 0.1% formic acid in water. Mobile phase B was 0.1% formic acid in acetonitrile. The Q-Tof mass spectrometer was run in positive ion, V-mode with detection in the range of 500-4000 m/z. The source parameters were as follows: capillary voltage, 2.25 kV (intact antibody)-2.50 kV (reduced antibody); sampling cone voltage, 65.0 V (intact antibody) or 50.0 V (reduced antibody); source temperature, 100° C.; desolvation temperature, 250° C.; desolvation gas flow, 550 L/hr. The protein peak was deconvoluted using the MassLynx® MaxEnt 1 function. Relative intensities of each unconjugated, singly-conjugated, and multiply-conjugated heavy and light chain masses were combined to calculate the overall DAR using the formula:
2[[ILC+1+2(ILC+2)+3(ILC+3)+ . . . n(ILC+n)]/ΣILCtot]+2[[IHC+1+2(IHC+2)+3(IHC+3)+ . . . n(IHC+n)]/ΣIHCtot]
where ILC+1 is mass intensity of light chain conjugated with one cytotoxin, ILC+2 is mass intensity of light chain conjugated with two cytotoxins, etc. IHC are the intensities from the corresponding conjugated heavy chains, and ΣILCtot and ΣIHCtot are the combined intensities of all unconjugated and conjugated light chains and heavy chains, respectively.
DAR was also analyzed using an LC-MS method with a Waters Alliance HPLC with SQD/PDA detection. Samples were injected onto a Proteomix RP-1000 column ([…], 1000A, 4.6 mm×15 cm, Sepax) at 65° C., and eluted with a 3 min equilibration in 25% B, a 27 min linear gradient from 25%-55% B, a 5 min hold at 55% B, a 1 min change to 90% B, a 5 min hold at 90% B, a 1 min change back to 25% B, and a 5 min reequilibration at 25% B. Mobile phase A was 0.1% TFA in water, and mobile phase B was 0.1% TFA in acetonitrile. The elute was then split (10:1) into PDA and SQD detectors. The SQD detector was set up as ES positive, capillary voltage at 3.2 kV, cone voltage at 40 V, extractor at 3 V, and RF lens at 0.2 V, source temperature at 150° C., and desolvation temperature at 250° C. Mass data was acquired at 200-2000 m/z for 40 min, continuum mode, scan time 1 second. Data was analyzed and deconvoluted offline using MassLynx and MaxEnt1. DAR was calculated using the formula:
2[[AUCLC+1+2(AUCLC+2)+3(AUCLC+3)+ . . . n(AUCLC+n)]/[…]]+2[[AUCHC+1+2(AUCHC+2)+3(AUCHC+3)+ . . . n(AUCHC+n)]/ΣAUCHCtot]
where AUCLC+1 is the area under the curve of the light chain peak conjugated with one cytotoxin, AUCLC+2 is the area under the curve of the light chain peak conjugated with two cytotoxins, etc. AUCHC is the area under the curve of the corresponding heavy chains, and ΣAUCLCtot and ΣAUCHCtot are the combined area under the curve of all unconjugated and conjugated light chains and heavy chains, respectively.

IGROV1 cells = experiment: Crystal Violet cytotoxicity assay (Example 4), IGROV1; type: cell-based, human; settings: mean of replicate experiments, read-out: Cytotoxicity IC50 (nM), IGROV1 (FR^hi, MSLN^neg)
Procedure: Test reagents were serial diluted 1:3 in 2 mL deep-well dilution plates, starting at 200 nM (10 dilutions total). […] Medium was then discarded. […] Plates were read at 570 nm. Data was analyzed using GraphPad Prism 6.

OVCAR3 cells = experiment: Crystal Violet cytotoxicity assay (Examples 1 and 2), OVCAR3; settings: Example 1
Procedure: Typically, test reagents were serial diluted 1:4 in 2 mL deep-well dilution plates, starting at 1 μM (10 dilutions total). 100 μL of diluted samples were added to the cell plates (starting concentration of test samples at 500 nM). […] Medium was discarded, plates were washed once with 200 μL DPBS, stained with 50 μL of 0.2% Crystal Violet solution at room temperature for 15 min, and then washed extensively with tap water. Plates were air-dried, and Crystal Violet was dissolved with 200 μL of 1% SDS solution. Plates were read at 570 nm. Data was analyzed using GraphPad Prism 6. Assays were performed using a seeding density of 1,000 cells per well and compound exposure was for a total of 5 days. When shorter-term exposure was desired, medium containing cytotoxic agents was removed after 4 hours and replaced with fresh growth medium prior to 5-day incubation. For OVCAR3, CaOV3, and NCI-H2110, cells were seeded at 3,000 cells/well and incubated for 5 days with ADC.
SJSA-1 cells are a human osteosarcoma tumor cell line that are negative for folate receptor alpha.
Typically, test reagents were serially-diluted 1:4 in 2 mL deep-well dilution plates, starting at 1 μM (10 dilutions total). 100 μL of diluted samples were added to the cell plates (starting concentration of test samples at 100 nM). […] Plates were read at 570 nm. Data was analyzed using GraphPad Prism 6.

[2] = system: cancer associated fibroblasts (α-smooth muscle actin) in H2110 xenograft; settings: 5 mg/kg single dose
Procedure: Prior to staining, slides were dewaxed and antigen was retreived in a Lab Vision™ PT Module (Thermo Scientific), in citrate buffer (pH 6.0) pre-warmed to 85° C., using the following program: warm to 97° C.; incubate at 97° C. for 30 min; and cool to 60° C. Slides were then transferred to double distilled water at room temperature for 5 min. Staining was performed in a Lab Vision™ Autostainer 360 (Thermo Scientific). Briefly, slides were washed twice in 1×Tris-buffered saline/Tween-20 (TBST) for 6 min/wash. Tissue sections were then incubated in blocking buffer (300 μL) (10% goat serum (Jackson Immunoresearch Laboratory Inc., Cat No. 005-000-121) diluted in 3% bovine serum albumin (BSA)-phosphate buffered saline (PBS)) for 1 hour, incubated in conjugated antibody (200 μL) (Table 38) for 1 hour, and washed five times in 1×TBST for 6 min/wash. Slides were counterstained with DAPI in mounting media, and coverslipped slides were allowed to harden for 30 min. Slides were processed on a Panoramic MIDI scanner (3[sequence]), and IHC images were analyzed using Halo software (Indica Labs).
Collected tumor samples were processed on slides, and cancer associated fibroblast (CAF) expression was analyzed by IHC.

HL-60 cells = experiment: Bystander killing assay, Nuclight Red HL-60; type: cell-based, human
Procedure: The day before study commencement, Nuclight™ Green (NLG) IGROV1 cells were seeded at 5,000 cells/well into 96-well round bottom plates, followed by centrifugation at 1,000 rpm for 3 min at room temperature to ensure formation of a cell pellet. The plate was placed in the vessel of an Incucyte Zoom® (EssenBio science) and incubated at 37° C./5% CO2 overnight. The program was set to collect images of cell growth, and to determine total numbers of nuclear green-stained and nuclear red-stained cells as well as phase-confluency of the cells every two hours. […] 50 μL of cytotoxin solution was added to the NLG-IGROV1 cells and incubated for 30 min. During the incubation period, Nuclight™ Red (NLR) HL-60 (FR^neg) cells were diluted to 2×10^5, 1×10^5 or 5×10^4 cell/mL with fresh media. 50 μL of the NLR-HL60 cell suspension or medium alone was added to the NLG-IGROV1 wells, followed by centrifugation at 1,000 rpm for 3 min at room temperature to ensure re-formation of the cell pellet. The plate was placed back into the vessel of Incucyte Zoom (EssenBio science) and incubated at 37° C./5% CO2 for up to 5 days. Relative cell growth of NLG-IGROV1 was determined by comparison to no ADC or free drug alone added samples using green cell counts. Relative cell growth of HL60 was done similarly, except that red cell count was determined. Determination of IC50 values for both NLG-IGROV1 and NLR-HL-60 was determined using Prism (GraphPad).
In order to assess bystander killing activity, an assay was set up using two labeled cell lines. […] Cytotoxicity was monitored by an Incucyte Zoom® cell imager.

## MORAb009-PEG2-eribulin
[1]
  DAR (LC-MS): 4.55
IGROV1 cells
  IC50: 42.8 nM

## MORAb009-PEG4-eribulin
[1]
  DAR (LC-MS): 4.48
IGROV1 cells
  IC50: 76.3 nM

## MORAb-003-maleimido-PEG2-Val-Cit-pAB-eribulin [MORAb-202]
OVCAR3 cells
  cytotoxicity on OVCAR3 cells, in words: potent cytotoxicity
[2]; Day 3 and Day 5
  CAF network structure (anti-α-SMA-FITC staining), in words: prominent
[2]; by Day 7
  CAF network structure (anti-α-SMA-FITC staining), in words: significantly diminished
HL-60 cells; HL-60 (FR-negative) cells alone, read-out: EC50, HL-60
  EC50: 0.0397 µM
HL-60 cells; HL-60 co-cultured with IGROV1, read-out: EC50, HL-60 (co-culture with IGROV-1)
  EC50: 0.00024 µM
